Data taken from patent publication US20260234276A1 (DOMAIN THERAPEUTICS, published 2026).
Numbering of substitutions follows the chain as printed. “And” between values parts separate entries of the source, which are not always exact repeats. Equal entries are not always repeated.

B1: 3-72 (Fab, V domains shown)
VH: QVTLKESGGGVVQPGRSLRLSCAASGFTFSSYAMHWVRQAPGKGLEWVAVISYDGSNKYYADSVKGRFTISRDNSKNTLYLQMNSLRAEDTAVYYCASSLLGAFDVWGKGTLVTVSS
VL: DVVMTQSPLSLPVTPGEPASISCRSSQSLLHSNGYNYLSWYLQRPGQSPQLLMYLGSKRASGVPDRFSGSGSGTDFTLEISRVEAEDVGIYYCMQALQTPLTFGGGTKVEIKR
notes: soluble Fab from phage display library huFabL-4, Flag tag
B2: 3-74 (Fab, V domains shown)
VH: EVQLVQSGGGVVQPGRSLRLSCAASGFTFSNYGMHWVRQAPGKGLEWVAIISDDGSNRYYGDSVKGRFTISRDNSKNTLYLQMNSLRAEDTAVYYCAKSLTTSYYYGMDVWGKGTLVTVSS
VL: QSALTQPPSASGSPGQSVTISCTGTSSDIGGYIYVSWYQQHPGKAPKLIIYEVHKRPSGVSNRFSASKSANTASLTISGLQAEDEADYYCSSYSSSRTVLFGGGTKLTVLG
notes: as for B1
B3: 3-71 (Fab, V domains shown)
VH: QVQLQESGGGLVKPGRSLRLSCTASGFTFSSYAMSWVRQAPGKGLEWVSVNSGSGGTTYYADSVKGRFTISRDNAKNTLYLQMNSLRAEDTAVYYCARVSRYYDILTGYVYAFDIWGKGTLVTVSS
VL: QSVVTQPPSVSAAPGQKVSISCSGSSSNIGKNYVSWYQQLPGTAPKLLIYDNNKRPSGIPDRFSGSKSGTSATLGITGLQAEDEADYYCQSYDRSLGVVFGGGTKLTVLG
notes: as for B1
B4: 3-67 (Fab, V domains shown)
VH: QVQLQQSGPGLVKPSQTLSLTCAISGDSVSSNSAAWNWIRQSPSRGLEWLGRTYYRSKWYNDYAVSVKSRITINPDTSKNQFSLQLNSVTPEDTAVYYCARAARLGMDVWGKGTMVTVSS
VL: QSVVTQPPSVSAAPGQKVTISCSGTSFNIGNNYVSWYQQLPGTAPKLLIYDNIRRPSGIPERFSGSKSGTSATLGITGLQTGDEADYYCGTWDSSLRAYVFGTGTKLTVLG
notes: as for B1
B5: 3-69 (Fab, V domains shown)
VH: B4 VH with R70Q, A102E, A103Q, R104F, L105S, K112R, M115L
VL: QSVLTQPPSASGTPGQRVTISCSGSSSNIGRNYVYWYQQLPGTAPKLLTDSNNQRPSGVPDRFSASKSGTSASLAISGLRSEDEADYYCAAWDGSLRGRVFGGGTKMTVLG
notes: as for B1
B6: 3-49 (antibody, V domains shown)
VH: EVQLQQSGPELVKPGASVKISCKTSGYTFTEYTMHWVKQSHGKSLEWIGGINPNNGDTNYNQKFMGKATLTVDKSSSTAYMELRSLTSEDSAVYYCVRRLLRRGAMDYWGQGTSVTVSS
VL: DIVLTQSPASLAVSLGQRATISCRASENVEYYGTSLMQWFQQKPGQPPKLLIYAASNVDSGVPARFSGSGSGTDFSLNIHPVEEDDIAMYFCQQSRKVPWTFGGGTKLDIK
B7: 3-73 (Fab, V domains shown)
VH: QVQLQQSGPGLVKPSQTLSLTCAISGDSVSSSTAAWNWIRQSPSRGLEWLGRTYYRSKWYNDYAVSVKSRITINPDTSKNQFSLQLNSVTPEDTAVYYCARAEAGGRFDYWGQGTLVTVSS
VL: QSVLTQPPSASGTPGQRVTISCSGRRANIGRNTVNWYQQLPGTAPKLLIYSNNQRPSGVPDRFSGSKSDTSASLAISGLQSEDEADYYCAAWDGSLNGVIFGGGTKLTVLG
notes: as for B1
B8: 3-68 (Fab, V domains shown)
VH: QVQLQQSGPGLVKPSQTLSLTCAISGDSVSRNTAAWNWIRQSPSRGLEWLGRTYYRSKWYNDYAVSVKSRITIRPDTSKNQISLQLTSVTPEDTAVYYCARGVHNAFDIWGRGTMVTVSS
VL: ETTLTQSPGTLSLSPGERATLSCRASQSVGNRYLAWYQQKPGQAPRLLIYGASSRATGIPDRFSGSGSGTDFTLTISRLEPEDFAVYYCQQYSGSTGYTFGQGTKLEIKR
notes: as for B1
B9: 3-90 (antibody)
heavy: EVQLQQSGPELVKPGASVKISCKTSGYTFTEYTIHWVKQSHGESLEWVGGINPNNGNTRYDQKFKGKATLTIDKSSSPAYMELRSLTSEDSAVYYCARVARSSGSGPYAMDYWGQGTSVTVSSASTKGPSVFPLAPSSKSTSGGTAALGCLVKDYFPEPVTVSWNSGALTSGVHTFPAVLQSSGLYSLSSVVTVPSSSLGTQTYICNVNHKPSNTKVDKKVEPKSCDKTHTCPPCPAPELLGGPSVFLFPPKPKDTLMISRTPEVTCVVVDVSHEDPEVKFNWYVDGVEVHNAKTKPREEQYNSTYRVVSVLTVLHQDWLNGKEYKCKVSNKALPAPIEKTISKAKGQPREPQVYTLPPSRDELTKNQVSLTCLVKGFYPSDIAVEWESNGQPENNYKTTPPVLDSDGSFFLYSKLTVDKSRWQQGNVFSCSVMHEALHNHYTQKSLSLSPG
light: DVVMTQTPLSLPVSLGDQASISCRCTQSLLHTNGDTYLHWYLQKPGQSPKLLIYKVSNRFSGVPDRFSGSGSGTDFTLKISRVEAEDLGVYFCSQSTHVPYTFGGGTKLEIKRTVAAPSVFIFPPSDEQLKSGTASVVCLLNNFYPREAKVQWKVDNALQSGNSQESVTEQDSKDSTYSLSSTLTLSKADYEKHKVYACEVTHQGLSSPVTKSFNRGEC
B10: 3-91 (antibody)
heavy: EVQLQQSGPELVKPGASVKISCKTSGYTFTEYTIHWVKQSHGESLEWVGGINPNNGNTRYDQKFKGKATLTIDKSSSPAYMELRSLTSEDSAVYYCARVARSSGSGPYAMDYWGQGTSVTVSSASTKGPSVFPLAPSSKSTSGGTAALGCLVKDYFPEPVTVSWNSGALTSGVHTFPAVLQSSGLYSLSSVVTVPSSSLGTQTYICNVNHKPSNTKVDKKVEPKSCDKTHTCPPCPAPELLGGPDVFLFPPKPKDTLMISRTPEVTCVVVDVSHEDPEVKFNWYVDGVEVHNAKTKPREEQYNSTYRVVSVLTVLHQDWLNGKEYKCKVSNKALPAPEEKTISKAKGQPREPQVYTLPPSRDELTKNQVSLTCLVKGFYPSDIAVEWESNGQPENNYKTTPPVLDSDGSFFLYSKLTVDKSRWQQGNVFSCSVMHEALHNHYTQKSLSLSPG
light: B9 light
B11: 3-92 (antibody)
heavy: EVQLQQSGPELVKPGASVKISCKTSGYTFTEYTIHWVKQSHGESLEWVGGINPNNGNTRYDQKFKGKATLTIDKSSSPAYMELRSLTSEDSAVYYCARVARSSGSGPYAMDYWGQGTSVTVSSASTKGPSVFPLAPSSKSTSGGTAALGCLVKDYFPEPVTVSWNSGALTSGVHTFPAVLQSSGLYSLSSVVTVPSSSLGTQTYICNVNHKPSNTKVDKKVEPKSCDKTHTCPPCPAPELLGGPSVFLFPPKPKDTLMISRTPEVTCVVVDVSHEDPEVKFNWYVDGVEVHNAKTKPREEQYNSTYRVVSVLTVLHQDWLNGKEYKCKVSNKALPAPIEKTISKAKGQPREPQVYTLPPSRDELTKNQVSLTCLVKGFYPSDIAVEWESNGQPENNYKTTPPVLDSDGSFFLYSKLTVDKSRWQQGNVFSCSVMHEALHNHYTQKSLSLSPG
light: B9 light
B12: 3-102 (antibody)
heavy: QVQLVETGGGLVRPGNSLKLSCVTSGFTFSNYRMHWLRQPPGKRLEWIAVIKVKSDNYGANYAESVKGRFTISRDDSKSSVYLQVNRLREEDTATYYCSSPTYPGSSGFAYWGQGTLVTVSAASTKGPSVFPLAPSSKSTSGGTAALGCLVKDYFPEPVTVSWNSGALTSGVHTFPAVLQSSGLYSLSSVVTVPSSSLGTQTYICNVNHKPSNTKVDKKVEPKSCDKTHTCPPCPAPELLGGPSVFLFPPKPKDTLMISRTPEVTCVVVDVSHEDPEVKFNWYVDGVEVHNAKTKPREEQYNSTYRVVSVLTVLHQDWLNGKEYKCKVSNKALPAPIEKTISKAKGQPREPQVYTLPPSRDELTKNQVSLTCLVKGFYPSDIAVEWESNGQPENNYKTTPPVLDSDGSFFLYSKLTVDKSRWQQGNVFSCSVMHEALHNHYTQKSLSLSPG
light: DIQMTQTTSSLSASLGDRVTISCRASQDISNYLNWYQQKPDGTVKLLIYYTSRLHSGVPSRFSGSGSGTDYSLTISNLEQEDIATYFCQQGNKFPPTFGGGTKLEINRTVAAPSVFIFPPSDEQLKSGTASVVCLLNNFYPREAKVQWKVDNALQSGNSQESVTEQDSKDSTYSLSSTLTLSKADYEKHKVYACEVTHQGLSSPVTKSFNRGEC
B13: 3-105 (antibody)
heavy: QVQLVETGGGLVRPGNSLKLSCVTSGFTFSNYRMHWLRQPPGKRLEWIAVIKVKSDNYGANYAESVKGRFTISRDDSKSSVYLQVNRLREEDTATYYCSSPTYPGSSGFAYWGQGTLVTVSAASTKGPSVFPLAPSSKSTSGGTAALGCLVKDYFPEPVTVSWNSGALTSGVHTFPAVLQSSGLYSLSSVVTVPSSSLGTQTYICNVNHKPSNTKVDKKVEPKSCDKTHTCPPCPAPELLGGPDVFLFPPKPKDTLMISRTPEVTCVVVDVSHEDPEVKFNWYVDGVEVHNAKTKPREEQYNSTYRVVSVLTVLHQDWLNGKEYKCKVSNKALPLPEEKTISKAKGQPREPQVYTLPPSRDELTKNQVSLTCLVKGFYPSDIAVEWESNGQPENNYKTTPPVLDSDGSFFLYSKLTVDKSRWQQGNVFSCSVMHEALHNHYTQKSLSLSPG
light: B12 light

Key:
[1] = target: T1, biotinylated CCR8 peptide (human, N-terminal biotin); assay: ELISA, soluble Fab on biotinylated CCR8 peptide captured on streptavidin
T1 construct: first 34 residues of human CCR8 plus a C-terminal K; also called biotinylated target peptide
Method: (§1) The wells of a microtiter plate were coated with 200 ng streptavidin protein in 100 μL Coating Buffer (0.1 M NaHCO₃, pH 8.6), and then incubated overnight at 4° C. For negative control, the wells were coated with PBS to determine non-specific binding. After shaking out the coating solution, the wells were washed three times with washing buffer (0.1% Tween 20-PBS). To prevent non-specific binding, 200 μL Blocking Buffer (3% BSA-PBS) was adding and incubated for 2 h at 37° C. After shaking out the blocking buffer, the wells were incubated with 50 ng biotinylated target peptide (SEQ ID NO: 420; see Example 10) in 100 μL Blocking Buffer for 1 h at 37° C. The control well was incubated with only 100 μL Blocking Buffer for 1 h at 37° C. After shaking out the biotinylated target peptide or buffer solution, the wells were washed 3 times with the washing buffer (0.1% Tween 20-PBS). Then 100 μL supernatant containing soluble Fab were added and incubated for 2 h at 37° C. Following three washes with washing buffer (0.1% Tween 20-PBS) for 3 times, 100 μL/well HRP conjugate of mouse anti-Flag tag mAb (Sigma A8592, 1:5000) diluted in Blocking Buffer were added and incubated for 1 h at 37° C. After washings, 3,3′,5,5′-tetramethylbenzidine (TMB) (Sigma) were added for 5 to 30 min at room temperature. The reaction was stopped by adding 50 μL/well of 1 M H₂SO₄.

streptavidin = target: T2, streptavidin (UniProt P22629 37-163, limits assumed); assay: ELISA, soluble Fab on streptavidin-coated control well without peptide
T2 construct: control well without peptide
Method: as §1

human CCR8 [2] = target: T3, human CCR8 (human, UniProt P51685 1-355); assay: cell-based or functional assay
human CCR8 [3] = target: T3, human CCR8; assay: flow cytometry, hCCR8 transfected CHOK1 cells
Method: Briefly, 1·10⁵ cells per well in a 96 well plate were incubated with a dilution of unconjugated anti-CCR8 mAb at 10 μg/mL then diluted at 1/3.33, 4 dilution points (during 30 min at 4° C.). […] To determine EC50 value, 8 concentrations of anti-CCR8 mAb were tested. Unbound antibodies were washed away with PBS (Invitrogen by Thermofisher Scientific, Illkirch-Graffenstaden, France) supplemented by 2% Fetal Bovine Serum (Invitrogen by Thermofisher Scientific, Illkirch-Graffenstaden, France) and 2 mM EDTA (Invitrogen by Thermofisher Scientific, Illkirch-Graffenstaden, France). Subsequently, cells are centrifuged (5 min at 400 g) and bound antibody is detected with F(ab′)₂-Goat anti-Mouse IgG (H+L) Cross-Adsorbed Secondary Antibody, Alexa Fluor 488 (dilution 1/500) (Invitrogen by Thermofisher Scientific, Illkirch-Graffenstaden, France) or with F(ab′)₂-Goat anti-Human IgG Fc Secondary Antibody, PE (Invitrogen by Thermofisher Scientific, Illkirch-Graffenstaden, France) (dilution 1/1000) at 4° C. for 30 min. Detection reagent is washed away and cells are centrifuged (5 min at 400 g) and resuspended in 30 μL PBS. Bound detection antibody is quantified on a MacsQuant16 (Miltenyi, Gladbach, Germany) (B1 or B2 channel, 5000 events per acquisition).

human CCR8 [4] = target: T3, human CCR8; assay: cell-based or functional assay; remark: listed apart in the source
pm8 = pm8 (human, sulfated tyrosines at Y15, Y16 and Y17); assay: ELISA on coated peptide [cont.]
Method: (§2) The specific binding properties of antibodies were evaluated by ELISA with coated CCR8 related peptides (500 ng/mL) in carbonate/bicarbonate buffer. Different peptides were used as described in Table 1 (see Example 1). Each anti-CCR8 mAb was tested at 1 μg/mL then diluted at 1/10. After an incubation at room temperature during 90 min, unbound mAbs were removed by washings. […] After washings, 3,3′,5,5′-tetramethylbenzidine (TMB) (Interchim, Montlugon, France) was added for 15 min. Then the optical density (OD) was determined by using a multiplate reader (Tecan, Lyon, France) and correlated with mAb reactivity on the panel of coated peptides.

pm3 = pm3 (human, sulfated tyrosine at Y17); assay: ELISA on coated peptide [cont.]
Method: as §2

pm6 = pm6 (human, sulfated tyrosines at Y16 and Y17); assay: ELISA on coated peptide [cont.]
Method: as §2

pm5 = pm5 (human, sulfated tyrosines at Y15 and Y17); assay: ELISA on coated peptide [cont.]
Method: as §2

human CCR8 [5] = target: T3, human CCR8; assay: cell-based or functional assay; remark: listed apart in the source

T2 sequence (P22629 37-163 limits assumed): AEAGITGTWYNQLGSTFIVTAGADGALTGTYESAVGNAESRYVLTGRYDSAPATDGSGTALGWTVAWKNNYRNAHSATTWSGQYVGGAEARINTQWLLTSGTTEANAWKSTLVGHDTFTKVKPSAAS
Sequence of pm8 (human, sulfated tyrosines at Y15, Y16 and Y17) (peptide, as listed by the source): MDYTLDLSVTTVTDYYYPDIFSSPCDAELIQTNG
Sequence of pm5 (human, sulfated tyrosines at Y15 and Y17) (peptide, as listed by the source): as above
Sequence of pm6 (human, sulfated tyrosines at Y16 and Y17) (peptide, as listed by the source): as above
Sequence of pm3 (human, sulfated tyrosine at Y17) (peptide, as listed by the source): as above

Binder | Optical Density [1] [OD450] | Optical Density (streptavidin) [OD450] | ADCC % Max lysis, NK cells Donor 3 (human CCR8 [5]) [%] | ADCC % Max lysis, NK cells Donor 4 (human CCR8 [5]) [%] | ADCC EC50, NK cells Donor 3 (human CCR8 [5]) [nM] | ADCC EC50, NK cells Donor 4 (human CCR8 [5]) [nM] | other results
B1 | 3.26 | 0.09 | – | – | – | – | –
B2 | 2.81 | 0.09 | – | – | – | – | –
B3 | 2.4 | 0.08 | – | – | – | – | –
B4 | 2.23 | 0.06 | – | – | – | – | –
B5 | 2.67 | 0.07 | – | – | – | – | –
B6 | – | – | – | – | – | – | hCCL1 (100 nM) residual response, Protocol #2, mAb 0.08 µg/mL (human CCR8 [2]): 99%; hCCL1 (100 nM) residual response, Protocol #2, mAb 0.4 µg/mL (human CCR8 [2]): 102%; hCCL1 (100 nM) residual response, Protocol #2, mAb 10 µg/mL (human CCR8 [2]): 95%; hCCL1 (100 nM) residual response, Protocol #3, mAb 0.05 µg/mL (human CCR8 [2]): 102%; hCCL1 (100 nM) residual response, Protocol #3, mAb 0.5 µg/mL (human CCR8 [2]): 97%; hCCL1 (100 nM) residual response, Protocol #3, mAb 5 µg/mL (human CCR8 [2]): 67%; % positive cells (human CCR8 [3]): 73.4%; MFI fold change to isotype ctrl (human CCR8 [3]): 6.52 fold; IC50 (Gi2 BRET, pH 6.5) (human CCR8 [4]): 0.036 µg/ml and 0.237 nM; IC50 (Gi2 BRET, pH 7.4) (human CCR8 [4]): 0.006 µg/ml and 0.039 nM; binding result (pm8): binds; binding result (pm3): binds; binding result (pm6): binds; binding result (pm5): binds
B7 | 2.27 | 0.07 | – | – | – | – | –
B8 | 3.64 | 0.06 | – | – | – | – | –
B9 | – | – | 14 | 15 | 0.793 | 1.52 | –
B10 | – | – | 25 | 28 | 0.218 | 0.053 | –
B11 | – | – | 29 | 29 | 0.195 | 0.282 | –
B12 | – | – | 16 | 18 | 0.291 | 0.406 | –
B13 | – | – | 25 | 30 | 0.00822 | 0.0489 | –
